Like-named read-outs stand apart in the source and are kept apart here.
T1: native human CXCR2 expressed by human neutrophils (Homo sapiens, UniProt P25025)
T1 construct: native human CXCR2 expressed by human neutrophils; endogenous in cells; host or cells: human peripheral blood cells (buffy coat, PBMC-enriched fractions, anticoagulated blood): neutrophils, monocytes
T1 sequence (P25025 1-360): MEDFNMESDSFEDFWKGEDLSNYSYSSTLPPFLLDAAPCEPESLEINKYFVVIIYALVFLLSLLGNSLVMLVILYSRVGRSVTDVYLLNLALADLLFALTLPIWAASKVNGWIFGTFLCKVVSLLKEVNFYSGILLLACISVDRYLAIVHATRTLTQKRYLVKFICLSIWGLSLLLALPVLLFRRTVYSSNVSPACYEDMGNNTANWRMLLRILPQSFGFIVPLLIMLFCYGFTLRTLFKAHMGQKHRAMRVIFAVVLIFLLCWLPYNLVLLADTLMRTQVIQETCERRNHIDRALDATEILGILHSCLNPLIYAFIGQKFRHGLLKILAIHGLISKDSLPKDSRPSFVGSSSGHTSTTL

T2: Human CXCR2 (Homo sapiens, UniProt P25025)
T2 sequence (P25025 1-360): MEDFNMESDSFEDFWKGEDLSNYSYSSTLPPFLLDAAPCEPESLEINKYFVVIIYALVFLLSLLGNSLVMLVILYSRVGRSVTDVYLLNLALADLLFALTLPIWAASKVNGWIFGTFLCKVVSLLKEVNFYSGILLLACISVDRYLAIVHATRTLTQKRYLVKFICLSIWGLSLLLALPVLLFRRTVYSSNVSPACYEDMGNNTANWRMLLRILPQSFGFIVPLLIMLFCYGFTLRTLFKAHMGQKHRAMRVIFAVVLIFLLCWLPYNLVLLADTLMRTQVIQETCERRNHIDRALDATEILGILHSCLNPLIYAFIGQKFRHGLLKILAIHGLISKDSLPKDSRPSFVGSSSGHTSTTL

B1: BKO-4A8: parental anti-CXCR2 antibody, VH SEQ ID NO: 17, VL SEQ ID NO: 18 (antibody, V domains shown)
VH: EVQLLESGGGLVQPGGSLRLSCAASGFTFSSSTMSWVRQAPGKGLEWVSAISGRGRNTYYADSVKGRFTISRDNSRNTLYLQMNSLRAEDTAVYYCAIQMGYWGQGILVTVSS
VL: QSALTQPPSASGSPGQSVTISCIGTSSDVGGYNYVSWYQQHPDKAPKLMIYEVNKRPSGVPDRFSGSKSGNTASLTVSGLQAEDEADYYCSSYAGNNNFGVFGGGTKLTVL
modifications: BKO_4A8_VH; BKO_4A8_VL
B2: 101c: VH SEQ ID NO: 108, VL SEQ ID NO: 110; renamed BKO-4A8-101c (antibody, V domains shown)
VH: EVQLLESGGGLVQPGGSLRLSCAASGFTFSSSTQSWVRQPPGKGLEWVSAISGRGRSTYYADSVKGRFTISRDNSKNTLYLQMNSLRAEDTAVYYCAIQAGYWGQGILVTVSS
VL: QSALTQPPSASGSPGQSVTISCIGTSSDVGGYNYVSWYQQHPGKAPKLMIYEVSKRPSGVPDRFSGSKSGNTASLTVSGLQAEDEADYYCSSYAGSNNFGVFGGGTKLTVL
modifications: 4A8 VH Variant 101 M34Q_A40P_N56S_R75K_M96A; 4A8 VL variant c D41G_N52S_N94S
notes: renamed BKO-4A8-101c

Columns and labels:
[1] = target: T1, native human CXCR2 expressed by human neutrophils; experiment: Flow cytometry binding to human blood cells (neutrophils, monocytes, PBMC preparations)
Experimental: Whole human buffy coat, PBMC enriched fractions prepared from human peripheral blood buffy coat or cynomolgus monkey whole blood was used for analysis of antibody binding activity by flow cytometry. Briefly, blood was untreated or diluted 1:1 in sterile filtered room temperature phosphate-buffered saline (PBS). 30 mL samples were layered over 15 mL Lymphoprep™ (Stem Cell Technologies, cat #07851). Peripheral blood mononuclear cells (PBMC) were enriched by room temperature centrifugation at 700 g for 30 minutes with no braking. The PBMC layer was isolated and cells washed in PBS containing 2 mM EDTA with low speed centrifugation at 200 g, to remove platelet contamination. Whole blood or PBMC enriched cell fractions were resuspended in red blood cell lysing solution (BioLegend, 420301). Viable cell counts were determined and cells resuspended at 1×10^7 cells per mL in FACS buffer (1×PBS+0.5% (w/v) BSA+2 mM EDTA pH 7.2).
Flow cytometry binding assays using whole blood or PBMC enriched preparations: Binding assays to detect CXCR2 on blood neutrophil populations using test antibodies were performed essentially as described for assays using transiently transfected Expi293F™ cells. Binding of antibodies to human CXCR2 on the surface of the neutrophils was measured using anti-CXCR2 antibody directly conjugated to the fluorophore allophycocyanin (APC). Matched isotype control antibodies were included for comparison. Cells were incubated with lineage specific antibodies and 2 μg/ml of APC conjugated anti-CXCR2 antibody or isotype control prepared in ice cold 3% BSA/PBS for a minimum of 30 minutes at 4° C. The commercial anti-CXCR2 antibody (clone 48331 (R&D Systems FAB331A)) was used as a positive control. Neutrophil populations were identified by characteristic granularity and size, and positive binding of commercially available antibodies against CD10 (Biolegend, clone H110a, catalogue number 312204). Cells were washed and fixed (BioLegend Fixation buffer, 420801) prior to analysis. The level of fluorescence on the cell surface was measured by flow cytometry. Using this method, test anti-CXCR2 antibodies were detected binding neutrophils from both human and cynomolgus monkey.
To further characterize the anti-CXCR2 antibody BKO-4A8-101c, the ability to bind CXCR2 on neutrophils was tested on anticoagulated human blood. Binding was measured using BKO-4A8-101c directly conjugated to fluorophore APC. Matched isotype control antibodies conjugated to APC were included for comparison. Cells were incubated with lineage-specific antibodies and 2 μg/mL of APC conjugated anti-CXCR2 antibody or isotype control. The level of fluorescence on the cell surface was measured by flow cytometry. […]

Human CXCR2 = target: T2, Human CXCR2; experiment: Tango CXCR2-bla U2OS cell-based β-arrestin recruitment assay; set-up: The beta-arrestin/TEV protease fusion and the beta-lactamase reporter are separate parts of the cell line
Source text: Cells were thawed, propagated, cultured and frozen according to the manufacturer's directions.
Preparation of Tango™ CXCR2-bla U2OS cells for use in cell-based assays: The manufacturer's protocol was altered to make use of 96-well plates instead of 384-well plates. Briefly, dividing cells were harvested one day prior to use. Cells were harvested and resuspended in assay medium (100% FreeStyle™ Expression Medium; Life Technologies; Cat #12338-018) at a viable cell density of 312,500 cells/mL. 128 μL of cell suspension was added per well in 96-well black-walled, clear bottom tissue culture-treated plates. Cells were incubated for 16-20 hrs at 37° C. in an atmosphere of 5% CO2 prior to use in assays.
Tango™ assay procedure: Assays were set up and run as described in the manufacturer's protocol. For antagonist assays, agonists were used at concentrations in the EC50-EC80 range. Assays were read using a FlexStation® 3 (Molecular Devices) fluorescence plate reader configured with the parameters given in Table 4. The blue/green emission ratio for each well was calculated by dividing the blue emission values by the green emission values. All inhibition curves were fitted using a four-parameter dose-response using GraphPad Prism™ (Version 7.01).
The Human CXCR2 Tango™ cell line was used to assess the ability of antibody BKO-4A8-101c to inhibit β-arrestin recruitment to agonist-activated CXCR2. All human ELR+ chemokine CXCR2 ligands were tested in antagonist dose response assays using calculated EC50 values of agonist.
The commercially available reporter cell line Tango™ CXCR2-bla U2OS (ThermoFisher Scientific) was used to assess the ability of the anti-CXCR2 antibodies to inhibit β-arrestin recruitment to agonist-activated CXCR2. Agonists were provided at their assay EC50 concentration for antagonist assays.

| Molecule | binding to native human CXCR2 on human PBMCs / neutrophils ([1]; FIG. 2, MFI) | potency of inhibition of CXCL1-mediated activation of CXCR2, ranking (Human CXCR2; agonist CXCL1, BKO-4A8, BKO-8G3_b, BKO-9C3_a compared) | IC50 (Human CXCR2; agonist CXCL1, combinatorial variants, read-out: CXCL1 IC50) [nM] | IC50 (Human CXCR2; agonist CXCL1, point variants, read-out: Tango Assay IC50 (nM) CXCL1) [nM] | IC50 (Human CXCR2; read-out: CXCL8 IC50, agonist CXCL8, combinatorial variants) [nM] | IC50 (Human CXCR2; read-out: Tango Assay IC50 (nM) CXCL8, agonist CXCL8, point variants) [nM] | binding to neutrophils and monocytes from human blood ([1]; APC conjugate, 2 μg/mL) | fold more potent than comparator CXCR2 antagonist antibodies or small molecules (Human CXCR2; CXCL1- or CXCL5-mediated β-arrestin activation, based on IC50 values) | CXCL1 Maximal Inhibition % (Human CXCR2; CXCL1 at EC50, comparison with comparators) [%] | potency compared to the parental antibody (Human CXCR2; CXCL1 or CXCL8 as agonist) | CXCL5 Maximal Inhibition % (Human CXCR2; CXCL5 at EC50, comparison with comparators) [%] | partial inhibition of CXCL8-induced β-arrestin recruitment (range) (Human CXCR2; CXCL8) | CXCL8 Maximal Inhibition % (Human CXCR2; CXCL8 at EC50, comparison with comparators) [%] | Maximal Inhibition % Mean (Human CXCR2; Hu CXCL1) [%] | Maximal Inhibition % Mean (Human CXCR2; Hu CXCL2) [%] | Maximal Inhibition % Mean (Human CXCR2; Hu CXCL3) [%] | Maximal Inhibition % Mean (Human CXCR2; Hu CXCL5) [%] | Maximal Inhibition % Mean (Human CXCR2; Hu CXCL6) [%] | Maximal Inhibition % Mean (Human CXCR2; Hu CXCL7) [%] | Maximal Inhibition % Mean (Human CXCR2; Hu CXCL8) [%] |
| --- | --- | --- | --- | --- | --- | --- | --- | --- | --- | --- | --- | --- | --- | --- | --- | --- | --- | --- | --- | --- |
| B1 | high binding activity | consistently the most potent | 94 | 0.177 | 0.66 | 0.112 | – | – | – | – | – | – | – | – | – | – | – | – | – | – |
| B2 | – | – | – | – | – | – | bound neutrophils (FIG. 12A) and monocytes (FIG. 12B) | 2- to 39 fold | 97 | improved potency | 98 | 70-80% | 78 | 98 | 100 | 96 | 98 | 98 | 76 | 78 |
